# Numbering of substitutions follows the chain as printed.
# T1: human MerTK endogenously expressed on cells (SK-MEL-5 cells; human macrophages) (human, UniProt Q12866 21-999)
# T1 construct: also called MerTK on SK-MEL-5
# T1 sequence: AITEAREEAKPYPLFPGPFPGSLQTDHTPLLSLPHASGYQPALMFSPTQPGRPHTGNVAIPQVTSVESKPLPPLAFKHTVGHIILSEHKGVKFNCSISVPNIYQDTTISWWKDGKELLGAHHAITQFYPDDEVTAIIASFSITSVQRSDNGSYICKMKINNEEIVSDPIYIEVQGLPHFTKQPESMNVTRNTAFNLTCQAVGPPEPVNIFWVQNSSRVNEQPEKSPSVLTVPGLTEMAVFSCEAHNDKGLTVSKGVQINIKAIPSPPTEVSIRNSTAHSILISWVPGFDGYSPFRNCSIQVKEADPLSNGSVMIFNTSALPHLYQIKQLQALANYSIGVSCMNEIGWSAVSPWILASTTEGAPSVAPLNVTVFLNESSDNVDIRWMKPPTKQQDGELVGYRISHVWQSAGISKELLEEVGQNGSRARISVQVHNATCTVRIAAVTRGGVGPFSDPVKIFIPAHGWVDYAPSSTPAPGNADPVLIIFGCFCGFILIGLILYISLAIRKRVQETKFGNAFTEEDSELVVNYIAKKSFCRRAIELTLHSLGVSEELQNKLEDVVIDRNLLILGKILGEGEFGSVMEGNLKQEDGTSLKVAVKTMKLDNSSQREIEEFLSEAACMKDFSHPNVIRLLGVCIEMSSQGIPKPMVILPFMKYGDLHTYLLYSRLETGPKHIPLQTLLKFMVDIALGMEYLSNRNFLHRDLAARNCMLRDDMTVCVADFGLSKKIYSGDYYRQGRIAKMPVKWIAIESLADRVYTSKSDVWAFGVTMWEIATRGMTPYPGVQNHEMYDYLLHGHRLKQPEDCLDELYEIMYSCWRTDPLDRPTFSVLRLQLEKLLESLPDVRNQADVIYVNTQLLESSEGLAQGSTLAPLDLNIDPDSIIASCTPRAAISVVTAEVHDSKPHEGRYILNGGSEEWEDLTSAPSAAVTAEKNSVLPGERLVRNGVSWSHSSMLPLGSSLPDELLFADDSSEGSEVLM
# T2: Recombinant human MerTK human Fc Chimera protein (R&D systems, Cat #391-MR-100) (human, UniProt Q12866 26-499, limits assumed)
# T2 construct: Bought; also called recombinant human MerTK protein; MerTK-Fc
# T2 sequence: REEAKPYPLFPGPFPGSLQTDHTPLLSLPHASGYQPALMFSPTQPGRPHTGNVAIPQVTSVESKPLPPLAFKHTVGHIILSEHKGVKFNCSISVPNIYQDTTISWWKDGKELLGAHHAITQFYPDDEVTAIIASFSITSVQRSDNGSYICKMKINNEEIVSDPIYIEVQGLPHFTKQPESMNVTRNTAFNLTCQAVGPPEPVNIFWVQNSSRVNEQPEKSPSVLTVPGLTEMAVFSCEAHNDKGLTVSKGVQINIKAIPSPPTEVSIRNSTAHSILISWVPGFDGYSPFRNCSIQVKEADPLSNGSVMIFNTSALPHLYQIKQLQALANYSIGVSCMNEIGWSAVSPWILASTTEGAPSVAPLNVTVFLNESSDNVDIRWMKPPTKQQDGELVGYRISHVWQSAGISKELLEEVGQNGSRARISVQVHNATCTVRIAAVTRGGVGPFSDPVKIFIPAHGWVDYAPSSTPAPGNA
# B1: MTK-17 (antibody, human IgG1, V domains shown)
# VH: QIQLVQSGPELKKPGETVKISCKASGYTFTNFGMNWVKQAPGKGLKWMGWINTYTGEPTYADDFKGRFAFSLETSASTAYLQINNLKNEDTATYFCSRGAVLRAGAMDCWGQGTSVTVSS
# VL: DIQMTQSSSYLSVSLGGRVTITCKASDHINNWLAWYQQKPGNAPRLLISGATSLETGVPSRFSGSGSGKDYTLSITSLQTEDVATYYCQQYWSTPRTFGGGTKLEIK
# B2: MTK-11 (antibody, human IgG1, V domains shown)
# VH: QVQLKQSGPGLVQPSQSLSITCTVSGFSLTDYGVHWVRQSPGKGLEWLGVIWSSGTTDYNEAFISRLSISKDNSKSHVFFKMNSLQAIDTAIYYCARKGHDPYAMDYWGQGTSVTVSS
# VL: QIVLTQSPAIMSASLGERVTMTCTASSSISSSYFHWYQQKPGSSPKLWIYSTSNLPSGVPARFSGSGSGTSYSLTISSMEAEDAATYYCHQYYRSPLTFGAGTKLELK
# B3: MTK-35 (antibody, human IgG1, V domains shown)
# VH: QVLLQQSGPELVKPGASVQLSCKASDYTFTSYDIHWVKQRPGQGLEWIGWIYPRDGYTKYNEIFKGKATLTVDTSSTTAYMELHSLTSEDSAVYFCARAYYTNWYYFDYWGQGTTLTVSS
# VL: EIVLTQSPTTMAASPGEKITITCRASSSISSHYLHWYQQKPGFSPKLLIYRTSNLASGVPARFSGSGSGTSYSLTIGTMEAEDVATYYCQQGSTIPLTFGAGTKLVLK
# B4: MTK-30 (antibody, human IgG1, V domains shown)
# VH: QVQLQQPGTELVRPGASVKLSCKASGYTFTSYWMHWVKQRPGQGLEWIGNLNPNNGGTYYNEKFKSKATLTVDKSSSTAYMQLSSLTSEDSAVYYCARQILLYFDYWGQGTTLTVSS
# VL: DVLMTQTPLSLPVSLGDQASISCRSSQSIVHSNGDTYLEWYLQKPGQSPKLLIYKVSNRFSGVPDRFSGSGSGTDFTLKISRVEAEDLGVYYCFQGSHVPWTFGGGTKLEIK
# B5: MTK-33 (antibody, human IgG1, V domains shown)
# VH: QVQLQQPGPELVRPGTSVKLSCKASGYTFTSYWMHWIKQRPGQGLEWIGVIDPSDNYINYNQKFKGKATLTVDTSSSTAYLQLSSLTSEDSAVYYCAREAGTRGYFDYWGQGTTLTVSS
# VL: SIVMTQTPKFLLVSAGDRVIITCKASQSVSNTVAWYQQKPGQSPKLLIYYASNRYTGVPDRFTGSGYGTDFTFTISTVQAEDLAVYFCQQDYRSPFTFGSGTQLEMK
# B6: MTK-20 (antibody, human IgG1, V domains shown)
# VH: QIQLVQSGPELKKPGETVKISCKASGYTFTNYGMTWVKQAPGKGLKWMGWINTYTGEPTYADDFKGRFALSLETSASTAYLQINNLKNEDTATYFCARGGGRLGLRPLDYWGQGTTLTVSS
# VL: DIQMTQTTSSLSASLGDRVTISCRASQDINNYLNWYQQKPDGTVKLLIYYTSRLHSGVPSRFSGSGSGTDYSLTISNLEQEDIATYFCQQGNTLPWTFGGGTKLEIK
# B7: MTK-19 (antibody, human IgG1, V domains shown)
# VH: EVQLQQSGPELVKPGASVKISCKTSGYTFTEYTMHWVKQSHGKSLEWLGGFNPNNVITSYNQRFQGRATLTVDKSSSTAYMELRSLTSDDSAVYYCTRGDLLWSLLLPGNYFDYWGQGTTLTVSS
# VL: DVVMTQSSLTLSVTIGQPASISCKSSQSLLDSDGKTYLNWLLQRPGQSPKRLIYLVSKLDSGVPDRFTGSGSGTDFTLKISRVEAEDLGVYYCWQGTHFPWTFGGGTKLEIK
# B8: MTK-01 (antibody, human IgG1, V domains shown)
# VH: QIQLVQSGPELKKPGETVKISCKASGYTFTNYGMNWVKQAPGKGLKCMGWINTYTGEPTYADDFKGRFAFSLETSATTAYLQINNLKNEDTATYFCARRDRYTWFAYWGQGTLVTVSA
# VL: QIVLSQSPAILSASPGEKVTMTCRASSSVSYMHWYQQKPGSSPKPWIYATSNLASGVPARFSGSGSGTSYSLTISRVEAEDAATYYCQQWSSNPPTFGGGTKLEIK
# B9: MTK-36 (antibody, human IgG1, V domains shown)
# VH: QVTLKESGPGILQPSQTLSLTCSFSGFSLSTFGMGVGWIRQPSGKGLEWLAHIWWYDDKYYEPALKSRLTISKDSSKNQVFLKIANVDTADTATYYCARIYYGTSYRYFDVWGTGTTVTVSS
# VL: B8 VL with S14F, S26T, S30R, S51Y, A54T, Q88H, P95Y
# B10: MTK-29 (antibody, human IgG1, V domains shown)
# VH: QIQLVQSGPELKKPGETVKISCKSSGFTFTTYGMSWVKQAPGKGLKWMGWINTYSGVPTYTDDFKGRFAFSLETSASTASLQINNLKNEDTATYFCARYTNYGYFDYWGQGTTLTVSS
# VL: B8 VL with S26T, S30G, D81H, S91G, P95F, G99S
# B11: MTK-15 (antibody, human IgG1, V domains shown)
# VH: QIQLVQSGPELKKPGETVKISCKASGYTFTNYGVHWVKQAPGKGLKWMGWINTYTGEPTYADDFKGRFAFSLETSASTAYLQINNLKNEDMATYFCARGNRYAYMDYWGQGTSVTVSS
# VL: B8 VL with P39S, P95R
# B12: MTK-05 (antibody, human IgG1, V domains shown)
# VH: QVQLQQSGAELVQPGTSVRLSCKTSGYTFTSYWIQWVKQRPGQGLGWIGEIFPGTGTTYYNEKFKGKATLTIDTSSSTAYMQLSSLTSEDSAVYFCARDGAYFDVWGAGTTVTVSS
# VL: DIQMTQSPASLSASVGETVTFTCRASENIFSYLAWYQQKQGKSPQLLVYNAKTLAEGVPSRFSGSGSGTHFSLKINSLQPEDFGSYYCLHHYGTPLTFGAGTKLELK
# Target: T1, human MerTK endogenously expressed on …
# Experiment: flow cytometry on SK-MEL-5 cells, Prism fit
# Procedure: To determine whether recombinant anti-human MerTK antibodies of the present disclosure bind to human MerTK endogenously expressed on SK-MEL-5 cells and to CHO cells overexpressing mouse MerTK (CHO-muMerTK OE cells), the following experiments were performed. SK-MEL-5 cells and CHO-muMerTK OE cells were plated at 40,000 cells/well. Anti-MerTK antibodies were titrated to a final concentration range of between 66.6 nM to 4 pM and then added to the cells. After 30 min on ice, cells were washed and then stained with APC-conjugated mouse anti-human Kappa antibody (Southern Biotech Cat #9230-11, Birmingham, Ala.) and a viability die (Life Technologies) in the presence of Fc block solution on ice for 30 minutes, and then washed twice with cold FACS buffer (2% FBS in PBS). Cells were fixed with 4% paraformaldehyde in PBS. Stained cells were acquired on a BD FACS Canto II cytometer and the mean fluorescence intensity (MFI) was calculated with FlowJo software and K value was calculated with Prism software. […] A lower Kd value reflects higher binding of antibody to cells.
row,Kd,Binder
1,12.7 nM,B1
2,3.54 nM,B2
3,1.29 nM,B3
4,0.47 nM,B4
5,0.93 nM,B5
6,0.11 nM,B6
7,3.07 nM,B7
8,0.049 nM,B8
9,1.42 nM,B9
10,0.14 nM,B10
11,0.19 nM,B11

# Target: T2, Recombinant human MerTK human Fc …
# Experiment: competition ELISA, His-Gas6 on captured MerTK-Fc
# Procedure: Rabbit anti-human IgG polyclonal antibody (Jackson ImmunoResearch, Cat #309-005-008) was captured to a high-protein binding plate at 2 μg/ml 4° C. overnight. After washing with 0.05% Tween20 in PBS three times, 5% BSA in PBS was added for 1 hour. Recombinant human MerTK human Fc Chimera protein (R&D systems, Cat #391-MR-100) was added at 2 μg/ml for 1 hour and the plates were then washed. Anti-MerTK antibodies were titrated to final concentration range of between 66.6 nM to 4 pM and then 40 μl of serially diluted antibody and 40 μl of His tag-conjugated recombinant Gas6 protein (R&D systems, Cat #885-GSB-050) at 3 μg/ml or His tag-conjugated recombinant ProS protein (R&D systems, Cat #9489-PS-100) at 20 μg/ml. After a further incubation for 1 hour, plates were washed and incubated for 1 hour with HRP-conjugated anti-6×His tag antibody (Abcam, Cat #ab1187). Plates were then washed and an HRP substrate (TMB) was used to develop the plates. After sufficient color change was observed, the reaction was stopped by adding 50 μl 2N H₂SO₄ and the OD was measured using a spectrophotometer (BioTek).
# From these experiments, IC50 values [nM] were determined using OD450 values obtained from the dose-response curves analyzed with Prism software. Table 14 and Table 15 show IC50 values determined for anti-MerTK antibody blocking of Gas6 ligand binding and ProS ligand binding to MerTK. […] Dashes indicate lack of significant blocking; “n.a.” indicates data not available.
row,IC50,Binder
1,14.5 nM,B1
2,0.31 nM,B3
3,1.26 nM,B4
4,4.96 nM,B6
5,0.29 nM,B9

# Target: T1, human MerTK endogenously expressed on …
# Experiment: cell-based or functional assay
row,"Gas6-mediated pAKT activity, average IC50, human M2c macrophages",Binder
1,3.42 nM,B1
2,2.63 nM,B2
3,4.28 nM,B5
4,1.48 nM,B6
5,0.902 nM,B7
6,0.246 nM,B12
7,1.28 nM,B8
8,5.37 nM,B10
9,2.8 nM,B11

# Source: patent US20210261685A1 (Alector, published 2021)
